Results as given in patent publication US20230158165.

Tests used:
[1] = test system: PEG2 construct peptide (KKKK-Peg2-Val-Cit-Tregitope-Nle), before addition of MPA and HSA
[2] = test system: PEG12 construct peptide (Peg12-Val-Cit-Tregitope-Nle), before addition of MPA and HSA

Q: Which results are given for “Recombinant human Cathepsin B (catalog 953-CY of R&D Systems)”?
A: cleavage of the Val-Cit site, evaluated by mass spec [1]: the PEG2 peptide did not have successful cleavage, and further modification of the Cathepsin B protocol did not produce successful cleavage; cleavage of the Val-Cit site, evaluated by mass spec [2]: For the PEG12 product, successful cleavage is demonstrated
